Results on 3 molecules are retold here after patent US20090280108A1, “SERUM AMYLOID A PROTEIN IN INFLAMMATION AND OBESITY” (priority 2004, published 2009).

Experiment [1] has as its system adipose tissue A-SAA production. Put plainly: Adipose organ culture: direct effect on adipose A-SAA production in vitro. The following applies: rosiglitazone 1 μM; dexamethasone 25 nM and insulin 7 nM; about 48 hours, SAA production between 24 to 48 hours; n=3.
Experiment [2] relates to Primary human coronary vascular endothelial cells (HCVECs). Put plainly: Cytokine release from SAA-treated human coronary vascular endothelial cells (Luminex / ELISA). Type of experiment: cell-based. Here is the method: (§1) Cell Culture Conditions. Primary human coronary artery endothelial cells (HCAECs) were purchased from Cambrex (Walkersville, Md.) and grown in endothelial cell basal medium-2 (EBM-2) supplemented with EGM-2 BulletKit. Experiments were conducted between the third to fifth passages. RAW264 cells (ATCC, Manassas, Va.) were grown in RPMI medium 1640 supplemented with about 10% fetal bovine serum. These cells were seeded on 6-well tissue culture plates at about 75% confluence and grown to about 90-95% confluence. The growth medium was replaced with supplement-free media (EBM-2 basal medium for HCAECs and RPMI1640 for RAW264). About one hour after the medium change, the cells were treated with recombinant human SAA (Peprotech, Rocky Hill, N.J.). The endotoxin level for this commercial preparation is advertised as less than about 0.1 ng/μg protein. The conditioned medium was collected about 8 hours after the SAA treatment by centrifugation at about 2,000×g for about 5 minutes and frozen until use for cytokine analysis.
(§2) Cytokine analysis. […] The intra- and inter-assay CV is about 5% and about 8% respectively. […] All samples were assayed in duplicate.

The subject of experiment [3] is mouse monocyte cell line RAW264. Put plainly: Cytokine release from SAA-treated RAW264 monocytes (Luminex). Type of experiment: cell-based. As to conditions: RAW264 cells. The method, then: as §1, §2
[4] abbreviates: SAA 0.47 or 2.3 μg/ml, about 8 hours, serum-free medium, dose-dependent.

Take `CN(CCOc1ccc(CC2SC(=O)NC2=O)cc1)c1ccccn1` (centres unmarked) [rosiglitazone]: the “reduction of insulin/dexamethasone stimulation of A-SAA secretion in the media” value in experiment [1] is recorded as “about 70%”.
Consider “lipopolysaccharide [LPS, reference compound]”, for which the “cytokine secretion (endotoxin contamination control)” value in experiment [2] (LPS 1 ng/ml) and in experiment [3] (LPS 1 ng/ml) was “did not stimulate cytokine secretion” each time.

B1: A-SAA: recombinant human SAA (Peprotech); acute-phase serum amyloid A used to treat cells (protein, UniProt P0DJI8 19-122, looked up)
Serum amyloid A-1 protein: RSFFSFLGEAFDGARDMWRAYSDMREANYIGSDKYFHARGNYDAAKRGPGGAWAAEVITDARENIQRFFGHGAEDSLADQAANEWGRSGKDPNHFRPAGLPEKY
With B1, in experiment [2] (setting [4]), the “release of IL-6” value was “dramatically stimulated”, the “release of IL-8” value was “dramatically stimulated”, the “release of MCP-1” value is reported as “dramatically stimulated” and the “release of plasminogen activator inhibitor-1 (PAI-1)” value was “dramatically stimulated”. Further, in experiment [3] (setting [4]), the “release of IL-6” value is reported as “dramatically stimulated”, the “release of IL-8” value is listed as “dramatically stimulated”, the “release of RANTE” value was “dramatically stimulated” and the “release of TNFα” value was “dramatically stimulated”.
